Laboratory results: US20230183364A1 (ELICERA THERAPEUTICS, published 2023)

T1: Biotinylated human IL13Rα2 (hIL13Rα2-avi) (human, UniProt Q14627 29-331, biotinylated in vivo on the Avi-tag by co-expressed BirA)
T1 construct: Produced in Sf9 cells; native signal peptide (aa 1-28) exchanged for the gp67 signal peptide; 42.2 kDa; also called human IL13Rα2-avi; Human ILRα2-avi
T1 sequence: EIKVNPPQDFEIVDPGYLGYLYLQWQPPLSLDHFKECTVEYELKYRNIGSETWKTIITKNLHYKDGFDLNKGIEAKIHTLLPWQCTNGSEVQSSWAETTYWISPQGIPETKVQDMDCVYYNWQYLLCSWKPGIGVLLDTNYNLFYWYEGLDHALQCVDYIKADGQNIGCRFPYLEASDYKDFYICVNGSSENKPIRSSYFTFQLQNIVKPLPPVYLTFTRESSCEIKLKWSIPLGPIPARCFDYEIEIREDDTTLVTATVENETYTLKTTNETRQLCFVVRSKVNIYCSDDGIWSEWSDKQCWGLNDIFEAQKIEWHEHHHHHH

T2: Mouse IL13Rα2 Fc chimera (mIL13Rα2-Fc, RnD Systems #539-IR) (mouse, UniProt O88786 22-334)
T2 construct: range 22-334; Bought; produced in NS0 cells; homodimer through Fc fusion; also called mILRα2-Fc; Mouse ILRα2-Fc; Fc part of the bought chimera not given
T2 sequence (looked up): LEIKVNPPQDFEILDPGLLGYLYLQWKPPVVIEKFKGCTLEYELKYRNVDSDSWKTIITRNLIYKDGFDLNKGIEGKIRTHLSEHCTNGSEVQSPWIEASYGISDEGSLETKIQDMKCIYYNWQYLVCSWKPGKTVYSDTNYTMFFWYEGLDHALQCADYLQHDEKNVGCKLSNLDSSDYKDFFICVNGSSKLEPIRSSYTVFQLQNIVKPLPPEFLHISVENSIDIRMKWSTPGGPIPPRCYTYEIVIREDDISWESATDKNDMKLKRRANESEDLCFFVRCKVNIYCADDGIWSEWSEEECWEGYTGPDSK

T3: Human IL13Rα1-Fc (hIL13Rα1-Fc, RnD Systems #146-IR) (human, UniProt P78552 27-342)
T3 construct: Bought; Fc part of the bought chimera not given
T3 sequence (looked up): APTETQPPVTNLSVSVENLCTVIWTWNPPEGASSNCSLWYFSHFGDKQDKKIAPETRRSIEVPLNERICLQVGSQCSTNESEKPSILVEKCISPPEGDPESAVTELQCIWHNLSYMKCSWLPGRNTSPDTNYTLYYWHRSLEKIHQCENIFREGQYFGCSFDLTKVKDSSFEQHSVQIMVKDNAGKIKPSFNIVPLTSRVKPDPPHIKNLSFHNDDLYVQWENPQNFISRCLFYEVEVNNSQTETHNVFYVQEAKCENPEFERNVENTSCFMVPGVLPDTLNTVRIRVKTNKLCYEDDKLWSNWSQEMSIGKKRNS

T4: Human IL13Rα2 Fc chimera (hIL13Rα2-Fc, RnD Systems #7147-IR) (human, UniProt Q14627 22-342)
T4 construct: Bought; produced in CHO cells; homodimer through Fc fusion; also called hILRα2-Fc; Human ILRα2-Fc; not shown: Fc part (and any linker) of the bought chimera
T4 sequence: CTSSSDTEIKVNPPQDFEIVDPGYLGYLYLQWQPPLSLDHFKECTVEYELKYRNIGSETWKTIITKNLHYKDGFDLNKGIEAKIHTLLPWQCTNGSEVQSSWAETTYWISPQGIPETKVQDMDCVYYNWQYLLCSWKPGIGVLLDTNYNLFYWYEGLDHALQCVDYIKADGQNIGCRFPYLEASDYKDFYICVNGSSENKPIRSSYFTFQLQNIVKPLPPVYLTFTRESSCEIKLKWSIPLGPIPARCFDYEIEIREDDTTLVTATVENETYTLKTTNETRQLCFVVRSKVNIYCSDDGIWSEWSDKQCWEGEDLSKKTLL

B1: 1E10B9 scFv (scFv)
scFv: QIQLVQSGPELKKPGETVKIYCKASGYSFRDYSVHWVKQAPGKGLKWMGWINTETGEPTYVDEFKGRFAFFLEASANTVYLQISNLKNEDTATYFCDYRFTYWGQGTLVTVSAGGGGSGGGGSGGGGSEIVMTQTPLILSVTIGQPASISCKSSQSVLYSNGKTYLNWLLQRPGQSPKRLIYLVSKLDSGVPDRFTGSGSGTDFTLKISRVEAEDLGVYYCVQGSHFPYTFGGGTKLEIKAAADYKDHDGDYKDHDIDYKDDDDKAAAHHHHHH
notes: also called X-ME107-B9
B2: W-ME107-27 scFv (scFv, V domains shown)
VH: EVQLLESGGGLVQPGGSLRLSCAASGFTFYGSYMGWVRQAPGKGLEWVSYISGYGGYTYYADSVKGRFTISRDNSKNTLYLQMNSLRAEDTAVYYCARTPYSAYIDYWGQGTLVTVSS
VL: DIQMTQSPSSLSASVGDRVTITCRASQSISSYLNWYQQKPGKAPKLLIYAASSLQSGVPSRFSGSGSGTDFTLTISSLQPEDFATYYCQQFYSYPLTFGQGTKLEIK
notes: Human scFv from SciLifeLib phage libraries
B3: W-ME107-117 scFv (scFv, V domains shown)
VH: EVQLLESGGGLVQPGGSLRLSCAASGFTFSGSYMSWVRQAPGKGLEWVSSIYGSGGYTYYADSVKGRFTISRDNSKNTLYLQMNSLRAEDTAVYYCARYSPFYMDYWGQGTLVTVSS
VL: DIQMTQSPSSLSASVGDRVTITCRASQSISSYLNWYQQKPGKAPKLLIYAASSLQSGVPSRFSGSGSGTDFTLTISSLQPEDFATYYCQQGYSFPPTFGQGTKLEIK
B4: W-ME107-10 scFv (scFv, V domains shown)
VH: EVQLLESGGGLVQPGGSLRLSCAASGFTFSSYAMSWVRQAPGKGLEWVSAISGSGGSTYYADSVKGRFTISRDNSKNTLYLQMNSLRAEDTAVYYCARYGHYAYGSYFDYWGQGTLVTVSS
VL: DIQMTQSPSSLSASVGDRVTITCRASQSISSYLNWYQQKPGKAPKLLIYAASSLQSGVPSRFSGSGSGTDFTLTISSLQPEDFATYYCQQDYYLFTFGQGTKLEIK
notes: as for B2
B5: W-ME107-75 scFv (scFv, V domains shown)
VH: EVQLLESGGGLVQPGGSLRLSCAASGFTFYSYGMSWVRQAPGKGLEWVSYISGGGSYTYYADSVKGRFTISRDNSKNTLYLQMNSLRAEDTAVYYCARGSYSHYGAHYLDYWGQGTLVTVSS
VL: DIQMTQSPSSLSASVGDRVTITCRASQSISSYLNWYQQKPGKAPKLLIYAASSLQSGVPSRFSGSGSGTDFTLTISSLQPEDFATYYCQQALSSLPTFGQGTKLEIK
notes: as for B2

Experiments:
streptavidin [1] = molecular target: T5, streptavidin (UniProt P22629 37-163, limits assumed); assay: ELISA on coated streptavidin, scFv in bacterial supernatant, anti-FLAG-HRP
T5 construct: Negative control antigen; cognate antigen of G-strep-1 scFv; also called negative control protein streptavidin
Experimental: (§1) Human IL13Rα2-avi (see Example A1), and negative control protein streptavidin were coated into a 384-ELISA well plate at 1 μg/ml in PBS at 4° C. overnight.
(§2) Plates were washed twice with MilliQ water and blocked for 2 h in blocking buffer (phosphate-buffered saline (PBS) supplemented with 0.5% bovine serum albumin (BSA)+0.05% TWEEN 20®). Triple-FLAG-tagged scFv 1E10B9 and mAb47, present in bacterial supernatant, were diluted 1:2, 1:20 and 1:200 in blocking buffer and allowed to bind. An assay control scFv (G-strep-1), specific for streptavidin, was also included. Detection of binding was enabled through an HRP-conjugated anti-FLAG M2 antibody (Sigma-Aldrich #A8592) followed by incubation with 1-step Ultra TMB ELISA substrate (ThermoFisher Scientific #34029). The colorimetric signal development was stopped by adding 1 M sulfuric acid and plates were read at 450 nm. All samples were assayed in duplicates.

[2] = molecular target: T1, Biotinylated human IL13Rα2 …; assay: ELISA on coated human IL13Ra2, scFv in bacterial supernatant, anti-FLAG-HRP
Experimental: as §1, §2

[3] = molecular target: T1, Biotinylated human IL13Rα2 …; assay: SPR single cycle kinetics, scFv captured
Description: (§3) An anti-FLAG M2 antibody (Sigma-Aldrich #F1804), functioning as a capture ligand was immobilized onto all four surfaces of a CM5-S amine sensor chip on a BIACORE® T200 instrument (GE Healthcare) according to manufacturer's recommendations.

[4] = molecular target: T2, Mouse IL13Rα2 Fc chimera (mIL13Rα2-Fc, …); assay: SPR single cycle kinetics, scFv captured
Description: as §3

[5] = molecular target: T3, Human IL13Rα1-Fc (hIL13Rα1-Fc, RnD …); assay: ELISA, coated hIL13Ra1-Fc, anti-FLAG-HRP
Experimental: Coating proteins hIL13Rα2-avi (Example A1), hIL13Rα2-Fc (RnD Systems #7147-IR), mIL13Rα2-Fc (RnD Systems #539-IR) and hIL13Rα1-Fc (RnD Systems #146-IR) were diluted to 1 μg/ml in PBS and directly coated into a 384-well ELISA plate. Two negative control proteins, streptavidin and a non-relevant protein, were also coated. Following incubation of plates with coating-proteins overnight at 4° C., plates were washed twice with MilliQ water and blocked for 2 h in blocking buffer (PBS supplemented with 0.5% BSA+0.05% TWEEN 20®). Triple-FLAG-tagged W-ME107 scFv clones present in bacterial supernatant were diluted 1:10 in blocking buffer and allowed to bind. Detection of binding was enabled through an HRP-conjugated anti-FLAG M2 antibody (Sigma-Aldrich #A8592) followed by incubation with 1-step Ultra TMB ELISA substrate (ThermoFisher Scientific #34029). The colorimetric-signal development was stopped by addition of 1 M sulfuric acid and plates were analyzed at […].

streptavidin [6] = molecular target: T5, streptavidin; assay: SPR: scFv captured on anti-FLAG M2, streptavidin injected
Experimental: An anti-FLAG M2 antibody (Sigma-Aldrich #F1804), functioning as a capture ligand, was immobilized onto all four surfaces of a CM5-S amine sensor chip through ECD/NHS chemistry on a BIACORE® T200 instrument (GE Healthcare) according to manufacturer's recommendations.
The surfaces were regenerated with 10 mM glycin-HCl pH 2.1. All experiments were performed at 25° C. in HBS supplemented with 0.05% TWEEN 20®, pH 7.5.

[7] = molecular target: T4, Human IL13Rα2 Fc chimera (hIL13Rα2-Fc, …); assay: SPR single cycle kinetics, scFv captured
Description: as §3

T5 sequence (P22629 37-163 limits assumed): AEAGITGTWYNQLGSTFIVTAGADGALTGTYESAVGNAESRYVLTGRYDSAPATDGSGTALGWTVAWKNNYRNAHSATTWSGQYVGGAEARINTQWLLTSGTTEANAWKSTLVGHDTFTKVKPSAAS

| Binder | binding result (streptavidin [1]) | binding result [2] | Kd [3] [nM] | koff [3] [s⁻¹] | kon [3] [M⁻¹ s⁻¹] | Kd [4] [nM] | koff [4] [s⁻¹] | kon [4] [M⁻¹ s⁻¹] | binding result [5] | binding result (streptavidin [6]) | Kd [7] [nM] | koff [7] [s⁻¹] | kon [7] [M⁻¹ s⁻¹] |
| --- | --- | --- | --- | --- | --- | --- | --- | --- | --- | --- | --- | --- | --- |
| B1 | no binding (tested: supernatant diluted 1:2) | no binding (tested: supernatant diluted 1:2) |  |  |  |  |  |  |  |  |  |  |  |
| B2 |  |  | 3.1 | 0.00022 | 69000 | 2.4 | 0.00019 | 80000 | no binding (tested: supernatant diluted 1:10) | no binding (tested: 200 nM) |  |  |  |
| B3 |  |  | 22 | 0.0033 | 150000 |  |  |  |  |  | 7.8 | 0.00035 | 45000 |
| B4 |  |  | 3.4 | 0.00017 | 51000 | 45 | 0.0018 | 40000 | no binding (tested: supernatant diluted 1:10) | no binding (tested: 200 nM) |  |  |  |
| B5 |  |  | 36 | 0.0079 | 220000 | 80 | 0.0036 | 45000 | no binding (tested: supernatant diluted 1:10) | no binding (tested: 200 nM) | 5.4 | 0.00026 | 48000 |
